The target in experiment [1] is T1, human Galectin-3 (LGALS3) (human, UniProt P17931 2-250, limits assumed).
T1 construct: also called human Gal-3; Gal-3
Kind of experiment: SPR, increasing concentrations of the mAb. The source says:
Clones 46H02 and 20F08 were then subjected to determination of binding parameters using surface plasmon resonance (SPR) in the presence of increasing concentrations of these antibodies.
In general terms: SPR reads the build-up and loss of mass on a sensor chip optically.

Experiment [2] deals with T2, mouse Gal-3 (mouse, UniProt P16110 2-264, limits assumed).
T2 construct: also called mouse Galectin-3; Lgal3
Kind of experiment: ELISA on mouse Gal-3 (moGal3). For orientation: In an ELISA, binding on a coated surface is turned into a signal by an enzyme label.

The target in experiment [3] is T2, mouse Gal-3. The experiment can be described thus: ELISA on mouse Gal-3 (moGal3), one OD450 value per clone.
The target in experiment [4] is T1, human Galectin-3 (LGALS3). The experiment can be described thus: ELISA on human Gal-3 (huGal3), one OD450 value per clone.
Experiment [5] has as its target T3, PE labeled Gal-3 (Gal-3-PE) (human, UniProt P17931 1-250, limits assumed, labelled with PE (phycoerythrin; Innova Biosciences kit), sites not stated).
T3 construct: Bought human Gal-3 labelled with PE; also called huGal-3 (Abcam ab89487) labelled with PE
Kind of experiment: blockade of Gal-3-PE binding to OVCAR3 cells by purified antibody, number of Gal-3-PE-bound cells (Mirrorball). The source says: Reactions to measure binding of Gal-3-PE to OVCAR3 cells were set up in the presence of PBS (negative control), or increasing concentrations of the indicated antibody. Purified antibodies were used in the binding reactions. Shown are the effects of antibody concentration on the extent of inhibition of Gal-3-PE binding to OVCAR3 by antibody clones 20F08 and 12H07 (FIG. 6A), which have the identical sequences, 46H02 (FIG. 6B), clones 38E05 and 39F02 (FIG. 6C), which also have identical sequences, and 14D11.2D3 (FIG. 6D).
An assay for Gal-3-PE binding to cancer cells was developed as a secondary screen. huGal-3 (Abcam ab89487) was labelled with PE (Innova Biosciences) according to manufacturer's instructions. The assay for Gal-3-PE binding to OVCAR3 cells was performed as follows: cultured […] cells were trypsinized and washed with culture medium. 500, 1000 or 2000 cells were incubated with various concentrations of Gal-3-PE. The indicated number of OVCAR3 cells were pipetted into a 96-well plate with the indicated amount of Gal-3-PE and incubated on the bench in the dark for 2 hrs prior to being read on a Mirrorball® device (TTP Labtech). Binding of Gal-3-PE to OVCAR3 cells was detected using the Mirrorball® flow cytometer.
Next, the clones were subjected to determination of dose-response of blockade of Gal-3-PE binding to OVCAR3 cells. […]

One may read the Kd as the concentration at which binding is half-saturated.

T1 sequence (P17931 2-250 limits assumed): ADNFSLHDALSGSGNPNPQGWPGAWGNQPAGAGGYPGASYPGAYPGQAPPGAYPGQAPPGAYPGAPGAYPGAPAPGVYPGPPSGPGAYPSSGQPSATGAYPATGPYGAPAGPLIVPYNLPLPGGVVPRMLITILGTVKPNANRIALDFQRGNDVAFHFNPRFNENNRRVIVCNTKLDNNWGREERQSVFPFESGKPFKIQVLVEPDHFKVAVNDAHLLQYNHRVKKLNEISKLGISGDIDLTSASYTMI
T2 sequence (P16110 2-264 limits assumed): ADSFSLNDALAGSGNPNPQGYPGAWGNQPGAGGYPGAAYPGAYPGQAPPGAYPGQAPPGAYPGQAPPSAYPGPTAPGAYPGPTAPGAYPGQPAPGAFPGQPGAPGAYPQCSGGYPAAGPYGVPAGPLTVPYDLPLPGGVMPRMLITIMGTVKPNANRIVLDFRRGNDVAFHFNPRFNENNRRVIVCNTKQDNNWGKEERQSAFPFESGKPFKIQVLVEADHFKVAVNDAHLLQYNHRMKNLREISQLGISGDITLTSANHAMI
T3 sequence (P17931 whole entry): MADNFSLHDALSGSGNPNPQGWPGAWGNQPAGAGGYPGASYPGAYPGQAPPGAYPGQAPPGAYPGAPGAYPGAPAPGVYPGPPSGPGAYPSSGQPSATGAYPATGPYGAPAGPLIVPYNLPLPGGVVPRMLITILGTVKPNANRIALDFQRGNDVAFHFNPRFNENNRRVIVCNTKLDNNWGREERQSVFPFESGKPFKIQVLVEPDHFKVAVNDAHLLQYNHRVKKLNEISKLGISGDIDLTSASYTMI

B1: mAb 20F08 (antibody, V domains shown)
VH: EVQLVESGGGLVKPGGSLRLSCAASGFIFSNYNINWVRQAPGKGLEWVSCVSRSNYTYYTDSVKGRFTISRDNAKKSLYLQMNSLRAEDTAVYYCARDCGTYGVFDYWGQGTLVTVSS
VL: ETTVTQSPASLSMAIGEKVTIRCITSTDIDDDMNWYQQKPGEPPKLLISEGNILRPGVPSRFSSSGYGTDFVFAIENMLSEDVADYYCLQSDNLPYTFGGGTKLELK
notes: Hybridoma antibody from AlivaMab Mouse; Human HC (chimeric IgH with mouse CH2 and CH3) and murine LC; also called clone 20F08
As to B1, the Kd in experiment [1] amounted to 44 nM. Further, the binding result with mouse Gal-3 [2] was “no binding”. In addition, the OD450 came to 0.047 with mouse Gal-3 [3] and 0.523 in experiment [4].

B2: mAb 12H07 (antibody, V domains shown)
VH: EVQLVESGGGLVKPGGSLRLSCAASGFIFSNYNINWVRQAPGKGLEWVSCVSRSNYTYYTDSVKGRFTISRDNAKKSLYLQMNSLRAEDTAVYYCARDCGTYGVFDYWGQGTLVTVSS
VL: ETTVTQSPASLSMAIGEKVTIRCITSTDIDDDMNWYQQKPGEPPKLLISEGNILRPGVPSRFSSSGYGTDFVFAIENMLSEDVADYYCLQSDNLPYTFGGGTKLELK
notes: Hybridoma antibody from AlivaMab Mouse; Human HC (chimeric IgH with mouse CH2 and CH3) and murine LC; also called 12H7; clone 12H07
With B2, the binding result with mouse Gal-3 [2] is “no binding”. Further, the OD450 with mouse Gal-3 [3] amounted to 0.049; in experiment [4], 1.4.

B3: mAb 46H02 (antibody, V domains shown)
VH: QVQLVQSGAEVKKPGASVKVSCKASGYTFTGYSMHWVRQAPGQGLEWMGWINPHSGGTNSAQKFQGRVTMTRDTSIGTAYMELNRLRSDDTAVYYCVRDNPITGFDYWGQGTLVTVSS
VL: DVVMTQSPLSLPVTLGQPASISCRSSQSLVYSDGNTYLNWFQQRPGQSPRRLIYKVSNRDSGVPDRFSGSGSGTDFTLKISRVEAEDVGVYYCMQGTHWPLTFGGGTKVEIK
notes: Hybridoma antibody from AlivaMab Mouse; 46H02 has a fully human F(ab)2 (human light chain); also called clone 46H02
Turning to B3, binding in experiment [1] was characterised by a dissociation constant (Kd) of 10 nM. Moreover, the results for the OD450 (with mouse Gal-3 [3]; in experiment [4]) were 1.38 and 2.56, respectively. The “IC50 (read off the curve)” value in experiment [5] is roughly 1 µg/mL.

B4: mAb 39F02 (antibody, V domains shown)
VH: EVQLLESGGGLVQPGGSLRLSCAASGFTLSNYAMSWVRQAPGKGLEWVSAISGSGGGTYNADSVKGRFTISRDNSKNTLYLQMNSLRAEDTAVYYCAKEAWISYFDYWGQGTLVTVSS
VL: DIVMSQSPSSLAVSVGEKVTLSCKSSQSLLYGDDQKNYLAWYQQKPGQSPKLLLYWASTWESGVPDRFTGSGSGTDFTLTISSVKAADLAVYYCQQYYSYPWTFGGGTKLEIK
notes: Hybridoma antibody from AlivaMab Mouse; Human HC (chimeric IgH with mouse CH2 and CH3) and murine LC; also called clone 39F02
As to B4, the OD450 came out at 0.726 with mouse Gal-3 [3] and 0.502 in experiment [4].

B5: mAb 38E05 (antibody, V domains shown)
VH: EVQLLESGGGLVQPGGSLRLSCAASGFTLSNYAMSWVRQAPGKGLEWVSAISGSGGGTYNADSVKGRFTISRDNSKNTLYLQMNSLRAEDTAVYYCAKEAWISYFDYWGQGTLVTVSS
VL: DIVMSQSPSSLAVSVGEKVTLSCKSSQSLLYGDDQKNYLAWYQQKPGQSPKLLLYWASTWESGVPDRFTGSGSGTDFTLTISSVKAADLAVYYCQQYYSYPWTFGGGTKLEIK
notes: Hybridoma antibody from AlivaMab Mouse; Human HC (chimeric IgH with mouse CH2 and CH3) and murine LC; also called clone 38E05
For B5, the OD450 in the experiment with mouse Gal-3 [3] stood at 1.12; in experiment [4] it was 0.86.

The values are drawn from patent US20240026009A1 (Memorial Sloan Kettering, published 2024).
